Experimental data: US20050255555A1

Experiments:
[1] = biological target: EGFR 273-621 C287R, yeast surface displayed (yeast; human); assay: from the titrations on yeast surface
[2] = biological target: EGFR 273-621 E293K, yeast surface displayed (yeast; human); assay: from the titrations on yeast surface
[3] = biological target: EGFR 273-621 E293K, yeast surface displayed (yeast; human); assay: titration on yeast surface, flow cytometry
[4] = biological target: wt-EGFR, FLAG-tagged full-length human EGFR on BaF/3 cells (human) (UniProt P00533); assay: FACS on wtEGFR-BaF/3 cells, 10 µg/ml antibody
[5] = biological target: wt-EGFR, FLAG-tagged full-length human EGFR on BaF/3 cells (human) (UniProt P00533); assay: FACS on wtEGFR-BaF/3 cells, median fluorescence against mock preincubation
[6] = biological target: EGFR 273-621 C287R, yeast surface displayed (yeast; human); assay: titration on yeast surface, flow cytometry, global fit of three data sets
[7] = biological target: wild-type EGFR 273-621, yeast surface displayed (Example 3) (yeast; human); assay: as above
[8] = biological target: wild-type EGFR 273-621, yeast surface displayed (Example 3) (yeast; human); assay: titration on yeast displaying EGFR 273-621, flow cytometry, three data sets
[9] = biological target: EGFR 273-621 C287R, yeast surface displayed (yeast; human); assay: titration on yeast displaying EGFR 273-621 C287R, flow cytometry, three data sets
monoclonal antibody 806 = assay: competition ELISA: peptide in solution against mAb […] binding to plate-coated 1-501 EGFR fragment

monoclonal antibody 806, sequence (VH): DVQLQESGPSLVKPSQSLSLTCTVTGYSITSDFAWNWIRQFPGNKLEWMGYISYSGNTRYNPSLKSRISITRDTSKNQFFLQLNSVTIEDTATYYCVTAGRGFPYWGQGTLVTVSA
monoclonal antibody 806, sequence (VL): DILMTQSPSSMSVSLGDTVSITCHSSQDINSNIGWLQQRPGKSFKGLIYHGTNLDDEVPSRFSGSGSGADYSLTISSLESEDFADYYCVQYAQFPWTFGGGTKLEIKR

Molecule | ΔΔG compared to wild-type [1] | ΔΔG compared to wild-type [2] | Kd [3] | median fluorescence after mock preincubation [4] | change (%) in antibody reactivity after preincubation with EGF [5] | change (%) in antibody reactivity after preincubation with mAb[…] [5] | Kd [6] | Kd [7] | EC50 (read off the curve) [8] | EC50 (read off the curve) [9] | IC50 (read off the curve) (monoclonal antibody 806)
monoclonal antibody 806 | 2.4 kcal/mol | 5.7 kcal/mol | > 30000 nM | 7 | -48% | 163% | 127 nM | 2.13 nM | 2 nM | 100 nM | 
monoclonal antibody 528 |  |  |  | 112 | -23% | -3% |  |  |  |  | 
CGADSYEMEEDGVRKC [287-302 EGFR peptide (287…302)] |  |  |  |  |  |  |  |  |  |  | 3 µg/mL
